Results: patent US20050260730A1, “CDK2/cyclin A crystals and uses thereof” (priority 2003, published 2005)
Non-standard residues stand in square brackets, D forms with d. Phe(4-F) = N[C@@H](Cc1ccc(F)cc1)C(=O)O

Biological target: cyclin A (human) (UniProt P20248)
Assay: competitive cyclin A binding assay

- IC50: 19 µM
Substance: H-RRL[Phe(4-F)]-NH2
